From IntAct's records for PubMed 15214843

B1: Septin-5 (Homo sapiens), Q99719 (parent)
chain: MSTGLRYKSKLATPEDKQDIDKQYVGFATLPNQVHRKSVKKGFDFTLMVAGESGLGKSTLVHSLFLTDLYKDRKLLSAEERISQTVEILKHTVDIEEKGVKLKLTIVDTPGFGDAVNNTECWKPITDYVDQQFEQYFRDESGLNRKNIQDNRVHCCLYFISPFGHGLRPVDVGFMKALHEKVNIVPLIAKADCLVPSEIRKLKERIREEIDKFGIHVYQFPECDSDEDEDFKQQDRELKESAPFAVIGSNTVVEAKGQRVRGRLYPWGIVEVENQAHCDFVKLRNMLIRTHMHDLKDVTCDVHYENYRAHCIQQMTSKLTQDSRMESPIPILPLPTPDAETEKLIRMKDEELRRMQEMLQRMKQQMQDQ
partner: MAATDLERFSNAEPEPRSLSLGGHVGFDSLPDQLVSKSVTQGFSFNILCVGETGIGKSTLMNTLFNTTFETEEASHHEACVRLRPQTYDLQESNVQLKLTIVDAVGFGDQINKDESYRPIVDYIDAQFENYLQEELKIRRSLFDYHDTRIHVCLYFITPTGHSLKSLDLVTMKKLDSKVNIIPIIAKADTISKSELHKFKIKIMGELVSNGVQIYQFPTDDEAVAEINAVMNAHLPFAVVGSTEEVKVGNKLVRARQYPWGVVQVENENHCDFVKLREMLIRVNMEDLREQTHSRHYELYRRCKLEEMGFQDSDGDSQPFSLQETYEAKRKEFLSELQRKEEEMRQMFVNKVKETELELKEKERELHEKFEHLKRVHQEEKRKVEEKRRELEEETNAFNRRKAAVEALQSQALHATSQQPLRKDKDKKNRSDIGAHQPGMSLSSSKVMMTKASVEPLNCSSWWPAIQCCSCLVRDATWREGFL

Variants of: B1
Details: with sept8_human SEPTIN8, Q92599

Variant | effect of a mutation on the interaction
MSTGLRYKSKLATPEDKQDIDKQYVGFATLPNQVHRKSVKKGFDFTLMVAGESGLGKNTLVHSLFLTDLYKDRKLLSAEERISQTVEILKHTVDIEEKGVKLKLTIVDTPGFGDAVNNTECWKPITDYVDQQFEQYFRDESGLNRKNIQDNRVHCCLYFISPFGHGLRPVDVGFMKALHEKVNIVPLIAKADCLVPSEIRKLKERIREEIDKFGIHVYQFPECDSDEDEDFKQQDRELKESAPFAVIGSNTVVEAKGQRVRGRLYPWGIVEVENQAHCDFVKLRNMLIRTHMHDLKDVTCDVHYENYRAHCIQQMTSKLTQDSRMESPIPILPLPTPDAETEKLIRMKDEELRRMQEMLQRMKQQMQDQ [S58N] | disrupting interaction strength
MSTGLRYKSKLATPEDKQDIDKQYVGFATLPNQVHRKSVAAGFDFTLMVAGESGLGKSTLVHSLFLTDLYKDRKLLSAEERISQTVEILKHTVDIEEKGVKLKLTIVDTPGFGDAVNNTECWKPITDYVDQQFEQYFRDESGLNRKNIQDNRVHCCLYFISPFGHGLRPVDVGFMKALHEKVNIVPLIAKADCLVPSEIRKLKERIREEIDKFGIHVYQFPECDSDEDEDFKQQDRELKESAPFAVIGSNTVVEAKGQRVRGRLYPWGIVEVENQAHCDFVKLRNMLIRTHMHDLKDVTCDVHYENYRAHCIQQMTSKLTQDSRMESPIPILPLPTPDAETEKLIRMKDEELRRMQEMLQRMKQQMQDQ [K40A;K41A] | with no effect
MSTGLRYKSKLATPEDKQDIDKQYVGFATLPNQVHRKAVKKGFDFTLMVAGESGLGKSTLVHSLFLTDLYKDRKLLSAEERISQTVEILKHTVDIEEKGVKLKLTIVDTPGFGDAVNNTECWKPITDYVDQQFEQYFRDESGLNRKNIQDNRVHCCLYFISPFGHGLRPVDVGFMKALHEKVNIVPLIAKADCLVPSEIRKLKERIREEIDKFGIHVYQFPECDSDEDEDFKQQDRELKESAPFAVIGSNTVVEAKGQRVRGRLYPWGIVEVENQAHCDFVKLRNMLIRTHMHDLKDVTCDVHYENYRAHCIQQMTSKLTQDSRMESPIPILPLPTPDAETEKLIRMKDEELRRMQEMLQRMKQQMQDQ [S38A] | with no effect
